Results reported in the supplement of paper PMC10724198.
± gives the standard deviation of the averaged measurements.

The sequences below were run on Saccharomyces cerevisiae (assay: protein stability index of tFT-peptide fusion (C-terminal peptide) (PSI (0-1 scale)); higher = more stable (slower turnover)). Settings: genetic background: wild type; temperature: 30 C.
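Also: PSI is a weighted mean of sequencing reads over stability bins, variants kept only with over 10 reads, mCherry proximal and sfGFP distal, peptide attached via GGGS linker.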

Row | Sequence | protein stability index
1 | PYACQYVPCITT | 0.5904 ± 0.004
2 | PYPCPPRPSPPP | 0.76 ± 0.034
3 | PYPLSSLSPSRP | 0.702 ± 0.11
4 | PYPPSSLPLQPA | 0.654 ± 0.025
5 | PYPSPLPPAPTP | 0.748 ± 0.015
6 | PYQQVAESETKK | 0.717 ± 0.089
7 | PYVLGRDVVVLF | 0.7 ± 0.06
8 | PYWPLLLTNCQL | 0.734 ± 0.063
9 | QAIEAGPPEHGY | 0.677 ± 0.036
10 | QARHNMVYHEIV | 0.656 ± 0.029
11 | QARQMEIRRLQT | 0.628 ± 0.047
12 | QASEYNREQSGL | 0.6732 ± 0.00076
13 | QCNGDEKKKLYK | 0.609 ± 0.022
14 | QDECPRTTQGRV | 0.656 ± 0.04
15 | QDISESLLRLLR | 0.7119 ± 0.0019
16 | QDRATRPSHRTQ | 0.684 ± 0.03
17 | QEGGWKRTYDII | 0.678 ± 0.046
18 | QEKQDIIEDHTT | 0.655 ± 0.019
19 | QEPARPTGPGQS | 0.628 ± 0.019
20 | QESRRTTVEKQA | 0.638 ± 0.011
21 | QFMLLRWGFAIR | 0.544 ± 0.024
22 | QFTRSRSRRVRS | 0.6385 ± 0.0048
23 | QFVLWPSVLGLG | 0.648 ± 0.054
24 | QGDDNVVGAMNI | 0.628 ± 0.089
25 | QGKNAPERTIKQ | 0.631 ± 0.025
26 | QGKRQEEGERER | 0.68 ± 0.052

Row | Sequence | protein stability index
27 | QGVLRAEAVDKG | 0.622 ± 0.019
28 | QHALSAPRTILP | 0.654 ± 0.03
29 | QHFAKAIVQTTT | 0.679 ± 0.02
30 | QHHPRTTPHRPS | 0.714 ± 0.0097
31 | QHTDNLLTHLMG | 0.6551 ± 0.0028
32 | QIFPLRLTWSRR | 0.642 ± 0.029
33 | QIGTVDEWTQQA | 0.738 ± 0.12
34 | QIRNNKPYSPSK | 0.742 ± 0.0061
35 | QKEKKKTVKTKI | 0.723 ± 0.09
36 | QKKKDKKKQNRT | 0.666 ± 0.029
37 | QKKKHRTTGKTT | 0.655 ± 0.035
38 | QKKKKKRNDKTQ | 0.71 ± 0.049
39 | QKKKKKSKQRGP | 0.743 ± 0.034
40 | QKKKRTKNKNKR | 0.6556 ± 0.0053
41 | QKKTNKKTTRNE | 0.691 ± 0.013
42 | QKLGNNNAKDLM | 0.66 ± 0.062
43 | QKLKPRKESSKN | 0.698 ± 0.058
44 | QKSKSSYPESYV | 0.777 ± 0.062
45 | QKTKTKKIRKKK | 0.7014 ± 0.0018
46 | QLCNQHCKMISD | 0.662 ± 0.0082
47 | QLRDNQNTLLQE | 0.7138 ± 0.006
48 | QLYKLKNMKKKN | 0.675 ± 0.0085
49 | QMKKDIKPRPGE | 0.704 ± 0.037
50 | QNKTKRMQKTKA | 0.629 ± 0.047
51 | QNQKKHTRQQNQ | 0.722 ± 0.072
52 | QNQVERREFRFS | 0.701 ± 0.088

Row | Sequence | protein stability index
53 | QPPPDPPPPTPS | 0.592 ± 0.014
54 | QPRAKNFRNPCP | 0.661 ± 0.1
55 | QPSSYPEANRQG | 0.671 ± 0.028
56 | QPYTPHTAFPAQ | 0.696 ± 0.011
57 | QQGKWHTRRKKY | 0.659 ± 0.07
58 | QQKKPKKEKTTE | 0.6744 ± 0.0036
59 | QQKYKLIQLVII | 0.584 ± 0.017
60 | QQLILCLFSPFP | 0.655 ± 0.015
61 | QQMSLRKNQKVK | 0.7 ± 0.066
62 | QQVRHNVKRVVL | 0.7222 ± 0.0025
63 | QRLQVLIGYDRR | 0.691 ± 0.039
64 | QRPFKCMIKFNK | 0.67 ± 0.0078
65 | QRPGKKNGSGRP | 0.682 ± 0.031
66 | QSGQSELRVVPP | 0.72 ± 0.021
67 | QSPPRHPSPTAS | 0.683 ± 0.082
68 | QSRPRNMFRVIS | 0.5469 ± 0.0045
69 | QSSGGSDSVLFG | 0.738 ± 0.041
70 | QTKAGKRKEKRE | 0.72 ± 0.12
71 | QTMYFLRKEKEN | 0.696 ± 0.063
72 | QTNAEPPSERVT | 0.655 ± 0.083
73 | QTNYSNQYKEKY | 0.713 ± 0.11
74 | QTPRYRGLFSAL | 0.639 ± 0.038
75 | QTRKRESPAMVT | 0.639 ± 0.02
76 | QTRQPKRSDEEK | 0.686 ± 0.014
77 | QTRRQKDAEHPR | 0.714 ± 0.023
78 | QTSWLKKTIKRE | 0.678 ± 0.072

Row | Sequence | protein stability index
79 | QVCSRKKCDSRK | 0.567 ± 0.069
80 | QVDITASPDRTT | 0.745 ± 0.056
81 | QVRPKGDPRARV | 0.644 ± 0.1
82 | QVVAAGRPWGVF | 0.677 ± 0.011
83 | QVVEANNPALSF | 0.647 ± 0.02
84 | QWGGEGWILGGV | 0.698 ± 0.031
85 | QWGRGGRHVTDI | 0.669 ± 0.038
86 | QWPCPTLSLRFS | 0.632 ± 0.015
87 | QWPNPEVLVRST | 0.70875 ± 0.00048
88 | QYDHGSSPRRFE | 0.7005 ± 0.0041
89 | QYILGLLLVPLG | 0.587 ± 0.032
90 | QYSLGLGQVQVI | 0.662 ± 0.033
91 | RAAATTELAARF | 0.697 ± 0.041
92 | RAACALSRRGLM | 0.926 ± 0.1
93 | RAAIPAHPFVSR | 0.676 ± 0.027
94 | RACLKSRCIAMG | 0.604 ± 0.065
95 | RACWGKSTGGEW | 0.723 ± 0.0083
96 | RADLHGFPHRCP | 0.76 ± 0.024
97 | RAGGSANVLAGE | 0.6926 ± 0.0016
98 | RAKNRFKRQGEN | 0.667 ± 0.023
99 | RAPFEGLRCRTG | 0.66 ± 0.033
100 | RAPPPATLPPLQ | 0.661 ± 0.086
101 | RARARSVLGRRD | 0.672 ± 0.0091
